The text below walks through data of patent US20220251222A1 (Johns Hopkins, published 2022).

The target in test [1] is T1, IL-8RB expressed on lentivirally transduced HEK 293T cells (UniProt P25025 1-360, limits assumed).
T1 construct: whole, on cells; also called IL-8R^+ cells; IL-6Rα^-/IL-8R^+ HEK 293T cells
T1 sequence (looked up): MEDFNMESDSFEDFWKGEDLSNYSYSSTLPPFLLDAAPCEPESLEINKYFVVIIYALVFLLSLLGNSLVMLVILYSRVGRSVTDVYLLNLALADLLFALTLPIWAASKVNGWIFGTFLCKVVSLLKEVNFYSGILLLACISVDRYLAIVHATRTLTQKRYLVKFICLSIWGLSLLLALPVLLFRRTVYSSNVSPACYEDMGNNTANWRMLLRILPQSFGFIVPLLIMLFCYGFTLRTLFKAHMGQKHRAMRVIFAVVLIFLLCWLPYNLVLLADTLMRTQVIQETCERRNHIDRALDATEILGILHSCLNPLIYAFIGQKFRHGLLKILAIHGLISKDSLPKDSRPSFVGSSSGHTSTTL
The experiment in a line: competition with 400 nM His-tagged IL-8 on IL-6Rα-/IL-8R+ HEK 293T cells, flow cytometry. As for the experimental part: IL-6Rα⁺/IL-8R⁻ and IL-6Rα⁻/IL-8R⁺ HEK 293T cells were cultured as previously described, and were trypsinized, resuspended in PBSA, and aliquoted into 96-well plates (2×10⁵ cells per well). IL-6Rα⁺/IL-8R⁻ 293T cells were incubated with titrations of various monoclonal or bispecific antibodies in the presence of saturating concentration of biotinylated IL-6 (100 nM) (Acro Biosystem, cat #: IL6-H8218-25UG) for 2 hr at 4° C. with rotation. Cells were then washed and incubated with 1:200 dilution of Alexa Fluor 647-conjugated streptavidin (Fisher Scientific, cat #: S21374) in PBSA for 15 min at 4° C. After a final wash, cells were resuspended in PBSA and analyzed on a CytoFLEX flow cytometer (Beckman Coulter). Curves were fitted to a first-order logistic model and IC₅₀ values were calculated using GraphPad Prism data analysis software. Mean fluorescence intensity (MFI) of unstimulated cells was subtracted. Similarly, IL-6Rα⁻/IL-8R⁺ 293T cells were incubated with titrations of various monoclonal or bispecific antibodies with saturating concentration of His-tagged IL-8 (400 nM) (Sino Biological, cat #: 10098-H08Y-100) for 2 hr at 4° C. with rotation. […] After a final wash, cells were resuspended in PBSA and analyzed on a CytoFLEX flow cytometer (Beckman Coulter). Curves were fitted to a first-order logistic model and IC₅₀ values were calculated using GraphPad Prism data analysis software. […]
A general note: A flow cytometer gives signals particle by particle.

In test [2] the target is T1, IL-8RB expressed on lentivirally …. Put plainly: flow cytometry titration on IL-6Rα+/IL-8R+ HEK 293T cells; IL-6Rα+/IL-8R+ 293T cells (FIG. 7C). As for the experimental part: (§1) HEK 293T cells were cultured in Dulbecco's modified Eagle's medium (DMEM, Mediatech) supplemented with 10% (Hyclone), 2 mM L-glutamine and 100 U/mL penicillin-streptomycin (Gibco). For surface binding assays, IL-6Rα⁺/IL-8R⁻, IL-6Rα⁻/IL-8R⁺, IL-6Rα⁺/IL-8R⁺, and […] HEK 293T cells were trypsinized for detachment, resuspended in PBSA, and then aliquoted into 96-well plates (1×10⁵ cells per well). Cells were incubated with titrations of various monoclonal or bispecific antibodies for 2 hr at 4° C. with rotation. Cells were then washed and incubated with a 1:50 dilution of fluorescein isothiocyanate (FITC)-conjugated anti-human IgG1 antibody (Sigma-Aldrich, Clone 8c/6-39) in PBSA for 15 min at 4° C. After a final wash, cells were resuspended in PBSA and analyzed on a CytoFLEX flow cytometer (Beckman Coulter). Binding isotherms were fitted to a first-order logistic model and KD values were calculated using GraphPad Prism data analysis software. Mean fluorescence intensity (MFI) of unstimulated cells was subtracted. […]
(§2) To determine whether engineered bispecific binding agents BS1 and BS2 specifically engage target antigens in a physiologically relevant context, antibody binding to IL-6Rα⁺/IL-8R⁻, IL-6Rα⁻/IL-8R⁺, IL-6Rα⁺/IL-8R⁺, and IL-6Rα⁻/IL-8R⁻ lentivirally transduced HEK 293T cells was measured via flow cytometry. […]

Test [3] addresses T2, IL-6Rα expressed on lentivirally transduced HEK 293T cells (UniProt P08887 20-468, limits assumed).
T2 construct: whole, on cells; also called IL-6Rα^+ cells; IL-6Rα^+/IL-8R^- HEK 293T cells
T2 sequence (looked up): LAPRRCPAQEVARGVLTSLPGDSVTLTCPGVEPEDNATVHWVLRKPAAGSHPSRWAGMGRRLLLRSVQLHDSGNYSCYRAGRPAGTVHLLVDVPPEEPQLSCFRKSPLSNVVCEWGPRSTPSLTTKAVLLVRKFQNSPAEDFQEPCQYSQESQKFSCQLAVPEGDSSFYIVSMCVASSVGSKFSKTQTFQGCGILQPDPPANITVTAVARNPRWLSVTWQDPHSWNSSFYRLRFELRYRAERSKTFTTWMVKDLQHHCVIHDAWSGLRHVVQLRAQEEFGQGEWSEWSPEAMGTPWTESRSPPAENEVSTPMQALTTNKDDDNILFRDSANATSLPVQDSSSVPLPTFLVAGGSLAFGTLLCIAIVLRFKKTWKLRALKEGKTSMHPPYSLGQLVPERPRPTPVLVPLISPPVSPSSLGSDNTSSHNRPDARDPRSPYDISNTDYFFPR
Put plainly: flow cytometry binding titration on IL-6R+/IL-8R- HEK 293T cells, detected with FITC anti-human IgG1. As for the experimental part: as §1, §2

Test [4] addresses T1, IL-8RB expressed on lentivirally …. The experiment in a line: flow cytometry binding titration on IL-6R-/IL-8R+ HEK 293T cells, detected with FITC anti-human IgG1. As for the experimental part:
as §1, §2

Test [5] deals with T3, human IL-6Rα extracellular domain (ECD), residues 89-303 of the mature protein, with C-terminal biotin … (human, UniProt P08887 108-322, biotinylated with BirA ligase on the biotin acceptor peptide).
T3 construct: range 89-303; The range 89-303 counts on the mature protein, not on the precursor; Any linkers between the ECD, BAP and His tag are not described; also called IL-6Rα ECD; recombinant IL-6Rα
T3 sequence: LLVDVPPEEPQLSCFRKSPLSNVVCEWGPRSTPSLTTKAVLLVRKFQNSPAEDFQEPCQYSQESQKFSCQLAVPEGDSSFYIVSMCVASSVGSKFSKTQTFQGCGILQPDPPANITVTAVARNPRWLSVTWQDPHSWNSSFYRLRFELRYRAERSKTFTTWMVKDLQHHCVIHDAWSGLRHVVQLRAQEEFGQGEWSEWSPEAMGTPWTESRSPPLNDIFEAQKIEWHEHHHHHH
The experiment in a line: equilibrium bio-layer interferometry titration, biotinylated human IL-6Rα ECD immobilized on streptavidin tips. The protocol:
Biotinylated human IL-6Rα ECD was immobilized to streptavidin-coated tips for analysis on an Octet® Red96 BLI instrument (ForteBio). Less than 5 signal units (nm) of receptor was immobilized to minimize mass transfer effects. Tips were exposed to serial dilutions of the anti-IL-6R antibody tocilizumab, the anti-IL-8R antibody 10H2, BS1, or BS2 in a 96-well plate for 300 s and dissociation was measured for 600 s. Surface regeneration for all interactions was conducted using 15 s exposure to 0.1 M glycine pH 3.0. Experiments were carried out in PBSA (phosphate-buffered saline [PBS] pH 7.3 plus 0.1% bovine serum albumin [BSA, Thermo]) at 25° C. Data was visualized and processed using the Octet® Data Analysis software version 7.1 (ForteBio). Equilibrium titration curve fitting and equilibrium dissociation constant (KD) value determination was implemented in GraphPad Prism software using a first-order logistic model. Experiments were reproduced two times with similar results.
To confirm functionality of our bispecific agents, antibodies were titrated against recombinant IL-6Rα via BLI. […] Moreover, both tocilizumab-containing engineered bispecific binding agents also bound IL-6Rα (FIG. 5).
For orientation: In BLI a coated tip is dipped into the sample, and binding shifts an interference pattern.

B1: 10H2, recombinant monoclonal hIgG1 (anti-IL-8RB) (antibody, V domains shown)
VH: EVQLVETGGRLVQPKGSLKLSCAVSGITFKTNAMNWVRQAPGKGLEWVARIRTKSYNYATYYADSVKDRFTISRDDSQSILYLQMNNLKTEDTAMYHCVREGRWGQGTLVTVSA
VL: QAVVTQESALTTSPGETVTLTCRSSTGAVTTSNYANWVQEKPDHLFTGLIGGTNNRPPGVPARFSGSLIGDKAALTITGAQIEDEAIYFCALWYSNHLVFGGGTKLTVL
notes: also called anti-IL-8RB antibody
Broadly, the IC50 is the midpoint of a concentration-inhibition curve. Lower therefore signals inhibition by little substance. A word on the Kd: it is the constant that tells how readily two partners part at equilibrium. A low value points to a tighter complex. As a reminder, the EC50 (read off the curve) is the concentration needed to bring the measured effect to its halfway point. Higher therefore signals weaker potency. For the molecule B1, the IC50 in test [1] worked out at 22 nM. The Kd in test [2] came to 4.1 nM. Further, the binding result in test [3] was “no binding (tested: 1e-6 M)”; in test [5], “no binding (tested: about 5e-7 M)”. For the same molecule, the “EC50 (read off the curve)” value in test [4] is roughly 4 nM.
